Experimental data published in patent publication US20240245800A1, “HIGHLY SPECIFIC RABBIT SINGLE -DOMAIN ANTIBODIES FOR DRUG DELIVERY IN IMMUNOTHERAPY APPLICATIONS” (TECHNOPHAGE, INVESTIGAÇÃO E DESENVOLVIMENTO EM …, priority 2021, published 2024).
Entries after “also recorded” stand apart in the source; their conditions may differ.

Assays:
CLBL-1 cell extracts = experiment: ELISA screening of anti-cNHL VL sdAb clones; type: binding, canine; details: clone supernatants, CLBL-1 extracts
Method: After the phage display selection, in order to express and select the best anti-cNHL VL sdAbs, phagemid DNA derived from the in vivo output selection was cloned into a PT7-PL vector and transformed into an E. coli strain BL21. Then, individual clones were auto induced, and the supernatant tested in ELISA assays against CLBL-1 and Jurkat cell extracts. To select the best lead candidates, three parameters were evaluated: binding against cNHL, expression yields, and unspecific binding. […] After selection, to characterize the selected clones, the 43 best lead candidates were analysed by sanger sequencing (FIG. 6B). To get further insights of the enriched sequences during the in vivo phage display selection, we performed next generation sequencing (NGS) of the biopanning repertoires. NGS allows massive sequence analysis of the panning population, enabling a genomic assessment of the library diversity and frequency of each clone. Two samples were sequenced: biopanning from the CLBL-1 tumour models and initial immune VL sdAb cNHL library (FIG. 7). Upon bioinformatic analysis of the NGS data, we were able to determine the diversity of each sample and identify the most represented clones. A total of 34880 sequences were obtained for the biopanning from the CLBL-1 tumours. The NHL library obtained a total of 48864 sequences. The number of singletons, consisting of the sequences with a single occurrence, varied between samples, ranging from 76.8% in the library, and 33.3% in the in vivo biopanning from the CLBL-1. Through the comparison of the sequence prevalence between the biopannings and the library, we were able to verify that the number of occurrences in each sequence was higher in the biopanning clones. […] By comparing ELISA data, sanger sequencing and NGS analysis, the six best clones (A12, C8, C5, E1, E2, and B12) were produced and purified. Due to its binding characteristics and production properties, C5 sdAb clone was chosen to be thoroughly characterized and used in the development of the proposed ADC.
To express and select anti-NHL-sdAbs, phagemid DNA encoding selected anti-cNHL sdAbs was cloned into PT7-PL (PT7-peptide leader) vector and transformed into E. coli strain BL21. Individual colonies were inoculated in 100 μl of Super Broth (SB) medium containing Overnight Express™ Autoinduction System (Novagen®) and 100 μg/ml of ampicillin and incubated overnight at 30° C. Next day, 40 μl of BugBuster (Roche) containing anti-protease cocktail-EDTA free inhibitors (Roche) were added and incubated for 30 min at 4° C. Then, plates were centrifuged at 1200 rpm and the supernatant was tested in ELISA assays. Three different conditions were assessed: binding to the sdAbs to the antigen, expression level and unspecific binding. After coating the wells with CLBL-1 cell extracts or Raji cell extracts for 1 h at 37° C., wells were blocked with 3% BSA in PBS. Then, wells were washed with PBS and clones were added and incubated for 1 h, at 37° C. Next, plates were washed and incubated with anti-HA HRP antibody (Roche). Finally, after 1 h incubation, plates were washed and ABTS (Roche) was added and optical density at 405 nm was measured at different time points. To evaluate the expression level, the same protocol was applied, excluding antigen coating.
For unspecific binding, antigen was replaced by 3% BSA. Rabbit sera and anti-CD20 antibody were used as positive controls. BL21 cell extracts were used as negative controls. In the end, the ten best individual clones were sequenced at Eurofins company. Sequence analysis was performed using the Vector Nti software (Invitrogen). The antibody frameworks, CDRs and the amino acid numbering and sequences followed the rules described by Kabat et al. (1991) Sequences of proteins of immunological interest. Bethesda, MD, U.S. Dept. of Health and Human Services, Public Health Service, National Institutes of Health. […]

CLBL-1 cells = experiment: Immunofluorescence binding/internalization of C5 in CLBL-1 cells; type: cell-based, canine; details: 5 μM, 90 minutes at 37° C.
Method: FIG. 8. Binding and internalization characterization of C5 VL sdAb. C5 binding and internalization properties against CLBL-1 cells were evaluated by cytometry and immunofluorescence. A) For flow cytometry analysis, 1×10^6 of CLBL-1 cells were incubated with Live/Dead reagents for 30 minutes. Then, 3 μM of C5 were incubated with the cells for different timepoints at 37° C. After, cells were washed, fixed, permeabilized, and incubated for 30 min with anti-HA antibody, washed twice and incubated with anti-rat Alexa Fluor-488. […] B) By contrast, no binding of C5 was detected with Jurkat cells. C) To confirm the binding of C5 to the CLBL-1 verified by flow cytometry, we evaluated its distribution on the cells by immunofluorescence assay. […] Representative microphotographs with C5 (green) and DAPI stained-nuclei (blue) are shown.
1.5×10^5 of CLBL-1 cells were plated on ibidi μ-Slide 8 Well Glass Bottom (#80827, Ibidi, Germany) and incubated for 24 h at 37° C. in a humidified atmosphere of 5% CO2. Then, 5 μM of VL was added to the cells and incubated for 90 minutes at 37° C. […] In the Airyscan acquisition mode, ×1.80 zoom images were recorded at 1024×1024 resolution. […]

CLBL-1 xenograft tumours = details: mouse, in vivo
Method: C5 was radiolabelled with ^99mTc(CO)3(H2O)3 and intravenously injected in the tail vein of a xenograft mice model of cNHL. Mice were sacrificed at 15 min and 3 h and the radioactivity of each organ was measured. The activity in each organ was calculated and expressed as a percentage of injected radioactivity dose per gram of organ or tissue (% ID/g).
Radiochemical purity (RP) was checked by Reversed-phase high-performance liquid chromatography (RP-HPLC) and instant thin-layer chromatography silica gel (ITLC-SG, Agilent Technologies, USA). […] Radioactivity distribution on the ITLC-SG strip was evaluated using a miniGita Star scanning device (Elysia-Raytest, (Germany) coupled with a Gamma BGO-V-Detector (Elysia Raytest). For purification and concentration of the ^99mTc-labeled sdAb, a 3 K Amicon (Merck Milipore) was used. ^99mTc(CO)3—C5 diluted in PBS was used for the biodistribution studies after RP determination by ITLC-SG. For that, mice were intravenously injected in the tail vein with 100 μl of ^99mTc(CO)3—C5 and sacrificed by cervical dislocation at 15 min, and 3 h after injection. Radioactivity was measured using a dose calibrator (Carpintec CRC-15W). After the removal of the tumour and tissues of interest, their radioactivity was measured using a γ-counter (Berthold, Germany). […]

B1: C5: rabbit derived anti-cNHL VL sdAb clone, SEQ. ID. 3; ^99mTc radiolabelled for biodistribution (antibody, listed as Oryctolagus cuniculus, V domains shown)
VL: ELDLTQTPSPVSASVGGTATINCQASQSVYNNYWWAWYQQRPGHPPKLLIYETSKLASGVPSRFKGSGSGTQFTLTIIDVQCDDAATYVCAGGYGTVIDNAFGGGTELEIL
modifications: 99mTc(CO)3 radiolabel
notes: ID; ^99mTc radiolabelled for biodistribution
- ELISA signal against NHL cells (CLBL-1 cell extracts): best results
- distribution/internalization in CLBL-1 cells (immunofluorescence) (CLBL-1 cells): internalization into the cytoplasm; also recorded: high density of Alexa Fluor-488 labelled C5 labelled in the perinuclear region
- distribution/internalization in CLBL-1 cells (immunofluorescence) (CLBL-1 cells; listed as VL C5): internalization into the cytoplasm
- elimination from blood and major organs (CLBL-1 xenograft tumours): fast elimination
